Measured values from the supplement of paper PMC10126150.
± gives the standard deviation of the averaged measurements.

system: ATP; test: switch fluorescence ratio, 500 uM ATP over buffer (Cy3 cluster intensity, sum of 5 cycles each) (fold (ratio)); higher = stronger signal-on switching upon ATP binding; sequences stand for … in TCGTCGGCAGCGTCAGATGTGTATAAGAGACAGTTTTTTTTTTTTTTTTTTTTTTTTT…TC; conditions: aptamer strand: ATP DNA aptamer (quencher-CACCTGGGGGAGTATTGCGGAGGAAGG + anchor), 100 nM annealed; ATP concentration: 500 uM
In short: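 Five buffer/ATP imaging cycles were run on Cy3-labelled switching-strand clusters on a modified Illumina MiSeq flow-cell, with NaOH stripping and re-annealing between cycles. In each cycle, clusters annealed to 100 nM quencher-labelled ATP aptamer were imaged in selection buffer, then after 15 min with 500 uM ATP at 22 °C. Per cluster, the fluorescence ratio is summed target-cycle over summed buffer-cycle Cy3 intensity, averaged per switch-domain sequence. Only clusters within 100-1000 RFU were kept.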
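Further: ATP exposure 15 min at 22 °C before imaging.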

Sequence | switch fluorescence ratio
AATCGTTGGG | 0.955 ± 0.038
GTATGGTGGG | 1.02 ± 0.04
ATATTTTCAG | 0.994 ± 0.012
GGGGGCGTAT | 1.051 ± 0.0072
TGCGGGTAAT | 0.9985 ± 0.0046
GTTTGAGTTT | 0.996 ± 0.026
CGGCAGTTCG | 0.979 ± 0.014
AAGCATTGTT | 0.999 ± 0.035
TACAGTAGAT | 1.06 ± 0.038
GGGGGCCTGG | 0.979 ± 0.019
GAGAGATGTT | 0.999 ± 0.021
ACCTAACACG | 1.19 ± 0.037
TAAAAATACT | 1.07 ± 0.11
TTGTAAGTAG | 0.979 ± 0.012
ACGTACACTT | 1.45 ± 0.074
GTACCTTGAT | 1.05 ± 0.015
TATCGGCTGT | 1.01 ± 0.011
AGAAGAAGTA | 0.9955 ± 0.0035
CAAGGACGAG | 1.02 ± 0.041
TTTGCTAGAT | 1.047 ± 0.0097
ATCGGGATTA | 0.987 ± 0.021
TTAAATTTGC | 1.03 ± 0.011
TCATGAAAAG | 0.997 ± 0.013
GGAAGGTTTT | 0.97669 ± 0.00029
TTTCTGTTGT | 1.14 ± 0.16

Sequence | switch fluorescence ratio
TTGGCCGGGT | 1.042 ± 0.0059
TGGCATATTT | 1.05 ± 0.051
TGATGCAGTT | 1.01 ± 0.018
GATTACTCTG | 1.03 ± 0.026
CATCAAGGTA | 1.04 ± 0.025
ACGGCACTCT | 1.55 ± 0.0028
CATGCCTTGT | 1.009 ± 0.0059
GGTACCTTTG | 0.9729 ± 0.009
TTATTCAGGA | 1.01 ± 0.029
TTCCCCATTG | 1.09 ± 0.023
ATCCGGGTGG | 1 ± 0.059
CGTTTACGCC | 1 ± 0.046
TTTTTGTGGC | 0.985 ± 0.03
AGGGTTGGCT | 1.02 ± 0.052
GCGGGGGAAG | 1 ± 0.02
AGTGTATTGA | 1 ± 0.036
TGGGTTAGCC | 1.01 ± 0.038
GCCGTTTTAC | 1.17 ± 0.05
GCTCAAGGTA | 1.006 ± 0.0044
TAGTGCGTCG | 0.942 ± 0.063
GGTGAGTTGG | 0.977 ± 0.014
CGTCCTGGGC | 1.0441 ± 0.00044
TATATTTCTA | 0.999 ± 0.035
TAGGGGCGGC | 1.01 ± 0.056
GAGCCCGCAG | 1.6 ± 0.038

Sequence | switch fluorescence ratio
ATGGATGTTA | 0.978 ± 0.032
TAGTGAGGGA | 0.992 ± 0.013
AAAGAACCG | 1.085 ± 0.0014
GACGGTGCAT | 1.33 ± 0.084
AGTGATTGAA | 0.987 ± 0.033
TTATTCGTGT | 1.01 ± 0.04
TAGCGTGTAG | 1.02 ± 0.022
GGGTGAGGAG | 0.998 ± 0.025
TTTGAAGCAG | 1.08 ± 0.068
TAGAAGGGGA | 0.994 ± 0.044
GGTGCGGGAC | 1.16 ± 0.12
TCCGGGCTGG | 1.02 ± 0.013
TTTACCTGAG | 1.37 ± 0.025
ATGGGGGGGT | 0.999 ± 0.025
GAGGGGGCGG | 0.999 ± 0.025
TTCGGATATA | 0.9915 ± 0.0063
AAAATTTGGG | 1.02 ± 0.025
GAGGGGGCTA | 1.02 ± 0.029
TGGCCGACTT | 1.02 ± 0.02
AAGTTTACAT | 1.01 ± 0.026
TGGGAATGGT | 1.01 ± 0.048
TGGTTGAGAC | 0.988 ± 0.016
TCAATTCTGA | 1.002 ± 0.0075
TGCGATATTA | 1.02 ± 0.031
TGGGGAAGGG | 0.989 ± 0.039

Sequence | switch fluorescence ratio
ATACGTGGCA | 0.9601 ± 0.0037
AAAAATGTCA | 0.979 ± 0.045
CCATGTGTCG | 1.05 ± 0.064
TGGCACAGTG | 0.996 ± 0.019
GGAGGAAGAT | 1.047 ± 0.0093
TGGGGTAAGT | 0.993 ± 0.032
AGTTTTGTGC | 1.005 ± 0.0017
GGGTTGATGA | 1.012 ± 0.0093
GGCGGAGCTA | 1.03 ± 0.049
AGAATTCCCT | 1.011 ± 0.01
ACTGTTAGTA | 1.01 ± 0.011
TATTAAGGGA | 0.995 ± 0.012
CCGGTAGGTA | 0.969 ± 0.011
TTATGCATCG | 0.9768 ± 0.0047
GAGATGTTTT | 0.988 ± 0.043
GTGGGACGGG | 1.03 ± 0.056
TCGGTCGACG | 0.962 ± 0.027
GTGTAAGACC | 1.03 ± 0.027
ATAGGATGAG | 1.022 ± 0.0091
AACTTGGTGT | 0.983 ± 0.016
CCTGGCGCTT | 2.06 ± 0.86
TCCATTTTAA | 1.055 ± 0.0017
GGTTAGCTGC | 0.991 ± 0.023
AATACTGTGC | 0.947 ± 0.064
ATTATGGGGG | 0.996 ± 0.036

Sequence | switch fluorescence ratio
TGGGGCGGAG | 0.979 ± 0.031
AACTTAACGA | 1.0744 ± 0.00011
CGGGGTTTAG | 0.992 ± 0.051
TTCGTGCAGG | 1.02 ± 0.043
TACTGGTTCT | 0.984 ± 0.064
CCTGTCATCC | 1.17 ± 0.023
TTGGAGCGTG | 1.003 ± 0.0015
CCGTTGTGGA | 1.038 ± 0.0027
AACCAGCTGG | 1.04 ± 0.03
TGCATTCATG | 0.996 ± 0.029
TACAACTAGA | 1 ± 0.024
TGAAGAATGT | 1.02 ± 0.017
TTATTTTTAA | 0.9809 ± 0.0038
GTTGTGTGGG | 0.985 ± 0.035
ATCCCGAAGC | 1.93 ± 0.18
CTTCGTACAG | 1.02 ± 0.014
ACAAATTGGG | 1.03 ± 0.092
GGTTGCCTGC | 0.96 ± 0.029
ATCGTGTTGT | 1.02 ± 0.015
GGGGTGGACG | 1.07 ± 0.021
TATCATATTA | 1 ± 0.037
TGTTCTGCGA | 1.43 ± 0.54
TTTTACTGAG | 1.04 ± 0.025
GACGTGAGGA | 0.989 ± 0.024
TAGATAGAAT | 1 ± 0.045

Sequence | switch fluorescence ratio
CCTAGTTGGC | 1.03 ± 0.083
TTGTATTCTT | 1.04 ± 0.088
AATTGTGTTT | 1.01 ± 0.021
TTTAGGGTGC | 1.03 ± 0.079
AAAAAACTAT | 1.02 ± 0.018
AGTTGGTCCT | 1.01 ± 0.017
ATTAGTGTCG | 1.01 ± 0.046
TTGGCCTAAA | 0.954 ± 0.04
AAGATACCTG | 1.08 ± 0.043
TGAGAGGTTA | 1.04 ± 0.013
GGGGTTCACC | 0.957 ± 0.023
TCGTGTAGCT | 1 ± 0.03
TAGGCCTGGG | 1 ± 0.0033
TCTGAATTCA | 0.972 ± 0.026
ACGGTTCAAT | 1.05 ± 0.011
AGTCTAAACT | 1.02 ± 0.016
AGACCGAGAC | 1.18 ± 0.079
TTAATGTTGT | 1 ± 0.035
CACCGGAAGG | 1.02 ± 0.024
GTTTGTACCG | 1 ± 0.051
TTTAGGGTTT | 1.06 ± 0.19
GTGAGCGACG | 0.965 ± 0.027
AAGTAATTTC | 1.02 ± 0.013
TATTTATGTT | 0.995 ± 0.031
ATGGTTGAGG | 0.987 ± 0.031

Sequence | switch fluorescence ratio
TGCGTCCCAA | 1.34 ± 0.021
TTAGGTGGGC | 1.08 ± 0.021
TTTGTGATG | 0.959 ± 0.027
TAGATAGCTT | 1.0112 ± 0.001
TAGGGGATAG | 1.02 ± 0.032
CTATCTATTG | 0.9923 ± 0.0014
CTAAACGTCA | 1.1 ± 0.051
TTATAAATAT | 1.08 ± 0.044
TGGGGCCCCA | 1.01 ± 0.046
TTTGGGGCTA | 1.05 ± 0.15
CAGGAAGGAT | 0.994 ± 0.016
AGTGGATATT | 1.02 ± 0.011
AAAAGCGTGG | 1 ± 0.019
AGGTTGGGTG | 1.05 ± 0.013
TGGGTATTGT | 1.02 ± 0.047
TAGAGTAGAT | 1.01 ± 0.02
GTTGGATGCT | 0.949 ± 0.028
TTTAGGGGCC | 0.987 ± 0.021
AGGGAGTCTG | 1.018 ± 0.0035
ATCAGGGGCA | 1.057 ± 0.0049
GCGTGCAATG | 1.026 ± 0.0018
GGCGAGACGC | 0.981 ± 0.031
AGGGGAGGAT | 1.1 ± 0.15
TATATTTTCA | 1.01 ± 0.068
ATTGCTTTTG | 0.99799 ± 0.00028

Sequence | switch fluorescence ratio
GGGAGAGGGG | 0.987 ± 0.02
TTTTCTGGTT | 0.97 ± 0.054
ACCCTTTTAC | 1.13 ± 0.052
CGGGGCATAT | 1.13 ± 0.085
ATGTTATGAA | 1.06 ± 0.11
TTACAGTTCA | 1.026 ± 0.0058
ATAAGGGTTT | 0.9905 ± 0.0095
TACGATTAGT | 0.9995 ± 0.0053
CCAGACACAG | 0.9849 ± 0.002
TGGAACCGGA | 1.02 ± 0.011
TTTTTTTATG | 0.989 ± 0.037
AGATGGGGTG | 1.23 ± 0.35
GAGGCGACGT | 0.963 ± 0.027
AGTATGACGT | 0.986 ± 0.026
TTGGTAGCAA | 1.81 ± 0.41
TTTTCGGGTT | 1 ± 0.04
AGAAGGCGGG | 0.985 ± 0.029
ATTAGTAAGA | 0.975 ± 0.011
CGACATACGA | 1.56 ± 0.033
GCAAATTTTA | 1.02 ± 0.015
TAGGTTGGGT | 0.992 ± 0.0089
GAGCCAGGCA | 0.974 ± 0.042
GATTTCCCGC | 1.26 ± 0.043
TGTTGATAGG | 0.982 ± 0.02
ATTAGTCGCT | 0.978 ± 0.019
